Experiment: yeast display, Sf9 membrane polyspecificity reagent, FACS + sequencing; frameworks hold sequencing errors
Outline: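 Nanobodies from a synthetic yeast display library (Saccharomyces cerevisiae BJ5465), induced 36–48 hours with galactose, were stained 1 hour at 4 °C with 10% biotinylated, detergent-solubilized Sf9 membrane reagent, enriched on streptavidin microbeads, then FACS-sorted. Anti-HA (expression) and streptavidin (reagent binding) fluorescence set low and high (top ~1%) gates. Polyreactivity labels come from the gate of origin. Genes were colony-PCR amplified, MiSeq 2 × 250 sequenced and filtered by CDR length.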

Sequence | polyreactivity (PSR sort gate)
QVQLVESGGGLVQAGGSLRLSCAAYGHIFFYYTMGWYRQAPGKERELVAAITIGGSTNYADSVKGRFTISRDYAKNTVYLQMNSLKPEDTAVYYCNVVKYVYIYSYWEYYYWGHGTQVTVSS | low polyreactivity
QVQLVESGGGLVQAGGSLRLSCAAYGITFGANAMGWYRQAPGKERELVADITWSGGDTYYADSVKGRFTISRDNAKYTVYLQMTSLIPEDTAVYYCNALQPGLGSPLGEYDFWGQGTQVTVSS | low polyreactivity
QVQLVESGGGLVQAGGSLRLSCAAYGITFTPNAMGWYRQAPGKEREFVAAITYSGGSTYYADSVKGRFTISRDNAKNTVYLQMNSLKPEDTAVYYCAAVYYLLYYEAYYYWGQGTQVTVSS | low polyreactivity
QVQLVESGGGLVQAGGSLRLSCAAYGLIFAISAMGWYRQAPGKERELVAAIRWSGASTYADSVKGRFTISRDNAKNTVYLQMNSLKTEDTAVYYCAADDLLHYDYWGQGTQVTVSS | low polyreactivity
QVQLVESGGGLVQAGGSLRLSCAAYGLIFGHYAMGWYRQEPGKERELVAAITTRGSSTYYADSVKGRFTISRDNAKNTVYLQMNSLKPEDTAVYYCNAKLVYGTTYKFDNWGQGTQVTVSS | high polyreactivity
QVQLVESGGGLVQAGGSLRLSCAAYGLTFYGNAMGWYRQAPGKERELVAAISRGGRTYYADSVKGRFTISRDNAKKTVYLQRNSLKPEDTAVYYCATVVSRVKQPFDMDYWGQGTQVTVSA | low polyreactivity
QVQLVESGGGLVQAGGSLRLSCAAYGLTFYHYTMGWYRQAPGKERELVAAISSSGVTTYYADSVKGRFTISRDNAKNTVYLQMNSLKPEDTAVYYCAAVWYPDRVQPENGTTDSPGDYWGQGTQVTVSS | low polyreactivity
QVQLVESGGGLVQAGGSLRLSCAAYGNTLDVNAMGWYRQAPGKERELVPAITSGGSTNYADSVKGRFTISRDNAKNTVYLQMNSLKPEDTAVYYCAKGSGVTYVTETLNTDYGYWGQGTQVTVSS | low polyreactivity
QVQLVESGGGLVQAGGSLRLSCAAYGRIFDAYAMGWYRQAPGKERELVAAITQSGGSTFYADSVKGRFTNSRDNAKNTVYLQMNSLKPEDTAVYDSNTGLSGRRYGFGVSFGMDYWGQGTQVTVSS | low polyreactivity
QVQLVESGGGLVQAGGSLRLSCAAYGRIFFNNAMGWYRQAPGKERELVAAINSGGRTNYADSVKGRFTISRDNAKNTVYLQMNSLKPEDTAVYYCNADDYPVWEFDYWGQGTQVTVSS | low polyreactivity
QVQLVESGGGLVQAGGSLRLSCAAYGRIFLGYAMGWYIQAPGKERELVAVISYSGTRTYYADSVKGRFTISRDNAKNTVYLQMNSLKPEDTAVYYCNARANGFKDGYWGQGTQVTVSS | high polyreactivity
QVQLVESGGGLVQAGGSLRLSCAAYGRNFTYYAMGWYRQAPGKERELVAANSRSGGRTYYADSVKGRFTISRDNAKNTVYLQMNSLKPEDTGVYYCAADRLSLRAYDYWGQGTQVNVSS | high polyreactivity
QVQLVESGGGLVQAGGSLRLSCAAYGRTFWRNAMGWYRQAPGKEREWVAAISRSGDSTRYADSLKGRFTISRDNAKNTFYLQMNSLKPEDTAVYYCNKLGTRVYEMDYWGQGTQVTVSS | high polyreactivity
QVQLVESGGGLVQAGGSLRLSCAAYGRTIPRYAIGWSRQAPGKQRDFVDSISFSSGSTYYADSVKGRFTISRDNAKNTVYVQMKSMKAEDTAVDYSNDIPGSRYYGYRLYYYWGQGTQVTVSS | high polyreactivity
QVQLVESGGGLVQAGGSLRLSCAAYGRTIRVYAMVWYRQAPGKERELVAAITSGDSTYYADSVKGRFTISRDNAKNTVYLQMNSLKPEDTAVYYCAVNTRRYWYGYWGQGTQVTVSS | high polyreactivity
QVQLVESGGGLVQAGGSLRLSCAAYGRTISRNTMAWYRQAPGKERELVAGITYGGDRTYYADSVKGRFTISRDNAKNTVYLQMNSLKPEDTSVYYCAAPWYWKGLRDYWGQGTQVTVSS | low polyreactivity

Sequence | polyreactivity (PSR sort gate)
QVQLVESGGGLVQAGGSLRLSCAAYGSIFRVYAMGWYRQAPGKEREFVAAITRRGTRTYYADSVKGRFTISRDNAKNTVYLQMNSLKPEDTAVYYCAAYFTDGLFEYWGQGTQVTVSS | low polyreactivity
QVQLVESGGGLVQAGGSLRLSCAAYGSIFSWNAMGWYIQAPRKERELVAGITWSGGGTSYADSVKGRFTISRDNAKNTVYLQMNSLKPEDTAVYYCAKEWIFEFNYWGQGTQVTVSS | low polyreactivity
QVQLVESGGGLVQAGGSLRLSCAAYGSIFYFNAMGRYRQAPGKERELVASITSGGSTNYADSVKGRFTISRDNAKNTVYLQMNSLKPEETEVYYCNARFPYLSRWLVRGLASYDYWGQGTQVTVSS | low polyreactivity
QVQLVESGGGLVQAGGSLRLSCAAYGSIFYYNAMGWYRQAPGKERELVAAITKSGTRTNYADSVKGRFTLSRDNAKNTVYLQMNSLKPEDTAVYYCAAEDQYYRYLFAYEYWGQGTQVTVSS | high polyreactivity
QVQLVESGGGLVQAGGSLRLSCAAYGSILYVYAMGWYRQAPGKERELVAVITAGGSTNYADSVKGRFTISRDNAKNTVYLQMNSLKPEHSAVYYCAADPYSVYGGDYWGQGTQVTVSS | low polyreactivity
QVQLVESGGGLVQAGGSLRLSCAAYGSTFYNNVMGWYRPAPGKERELVAAINSGGRTYYADSVKGRFTISRDNAKNTVYLQMNSLKPEDTAVYYCAVGYGRAGRMDYWGQGTQVTVSS | high polyreactivity
QVQLVESGGGLVQAGGSLRLSCAAYGSTLTWNAMGWYRQAPGKERELVAAITGVGSTNYADSVKGRFTISRDNAKNTVYLQMNSLKPEDSAVYYCAAQGSGSTLYEYWGQGTQVTVSS | low polyreactivity
QVQLVESGGGLVQAGGSLRLSCAAYSYVMGWYRQAPGKERELVAAISQSGGSTYYADSVKGRFTISRDNAKNTVYLQMNSLKPEDTADYYCAARREPYQYNQYYSWGQGTQVTVSS | high polyreactivity
QVQLVESGGGLVQAGGSLRLSCAAYVSIFGDNALGWYRQAPGKEMELVAAISSDGNTNYADSVKGRFTISRDNAKNTVYLQMNSLKPEDTAVYYCAARWGYRRVRANSFYYWGQGTQVTVSS | low polyreactivity
QVQLVESGGGLVQAGGSLRLSCAAYYAMGWYRQAPGKERELVAAIDDGTSTNYADSVKGRFTISRDNAKNTVYLQMKSLKPEDTAVYYCNKLSEVTYYGSKFDYWGQGTQVTVSS | low polyreactivity
QVQLVESGGGLVQAGGSLRLSCAAYYYNMGWYRQAPGKESELVASITWSDVSTYYADSVKRRFTISRDNAKNTVYLQMNSLKPEDTAVYYCAKGTWADAYGYWGQGTQVTVSS | low polyreactivity
QVQLVESGGGLVQAGGSLRLSCADSASIFRNAMGWYRQAPRKERELVAGIRWSDGSTNYADSVKGRFTISRDNANITVYLQMNSLKPEDTAVYYCAKGAYFARRMYYWGQGTQVTVSS | low polyreactivity
QVQLVESGGGLVQAGGSLRLSCADSASTLVVNGMGWYRQAPGKERELVASISSDGSTNYADSVKGRFTISRDNAKNTVYLQMNSLKPEDTAFYYCAADEGNGQASLSSNLYDYWGQGTQVTVSS | low polyreactivity
QVQLVESGGGLVQAGGSLRLSCADSGFILDYNTMGWYRQAPGKERELVAAISSSGDTTYYADSVKGRFTISRDNAKNTVYLQMNSLKPEDTAVYYCAREYGDGYEYWGQGTQVTVSS | low polyreactivity
QVQLVESGGGLVQAGGSLRLSCADSGFTFSSYAMGWYRQAPGKDRELVAAISTRGGSTYYADSVKGRFTISRDYANKTVYLQMNSLKPEDTAVYYCATGGRGGRRYEYWGQGTQVTVSS | low polyreactivity
QVQLVESGGGLVQAGGSLRLSCADSGFTFYFYAMGWYRQAPGKEREFIATINFISGSTYYADSVKGGVTISRDNAKNTVYLQMNSLKPEDTAVYYCNKPFPYYPDGPNGYDYWGQGTQVTVSS | low polyreactivity
